The text below walks through data of PMC5951847, “Substrate sequence selectivity of APOBEC3A implicates intra-DNA interactions”.

The target in this series is A3A(E72A) (Homo sapiens, UniProt P31941 1-199, E72A). The experiment in a line: fluorescence anisotropy; pH 6.0; 50 mM MES pH 6.0, 100 mM NaCl, 0.5 mM TCEP, room temperature overnight, 10 nM TAMRA-oligo; competition with 300 nM A3A(E72A); pH series: acetate 4.0-5.0, MES 5.5-6.5, HEPES 7.0-8.0, Tris 8.5-9.0. As to conditions: protein: recombinant; tags: His6-SUMO removed by Ulp1 (untagged); label: 5' TAMRA; hairpin.
A3A(E72A), sequence (P31941 whole entry E72A): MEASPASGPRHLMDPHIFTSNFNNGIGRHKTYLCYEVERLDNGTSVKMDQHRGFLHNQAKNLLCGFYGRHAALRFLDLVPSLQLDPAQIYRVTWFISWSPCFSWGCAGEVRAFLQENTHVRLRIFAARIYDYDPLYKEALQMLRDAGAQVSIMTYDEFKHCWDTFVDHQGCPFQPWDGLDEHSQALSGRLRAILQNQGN

Take GCCATCATTCGATGGG (structured_DNA) [Hairpin-TTC]: the dissociation constant Kd came out at 26 ± 2 nM.
